Starred links: 1 amine or outer side, 2 acyl side, 3 side chain; linkers in the order of their positions; H or OH if unused. Positions of bridges follow the written chain, without caps; N, C: chain ends. Non-standard residues stand in square brackets, D forms with d. *: point of attachment. αMeNva(5-ylidene) = C[C@@](CCC=[*:3])(N[*:1])C(=O)[*:2]; S8 = C=CCCCCCC[C@](C)(N)C(=O)O; SeMet = C[Se]CC[C@H](N)C(=O)O; S5 = C=CCCC[C@](C)(N)C(=O)O; Nle = CCCC[C@H](N)C(=O)O; For = O=C*
What was measured:
[1] = target: T1, hDcn1^P (potentiating neddylation / PONY domain of human Dcn1, DCUN1D1) (Homo sapiens, UniProt Q96GG9 62-259); assay: ITC, peptide titrated into Dcn PONY domain
T1 construct: also called DCUN1D1^P; SCCRO PONY domain
T1 sequence (Q96GG9 62-259): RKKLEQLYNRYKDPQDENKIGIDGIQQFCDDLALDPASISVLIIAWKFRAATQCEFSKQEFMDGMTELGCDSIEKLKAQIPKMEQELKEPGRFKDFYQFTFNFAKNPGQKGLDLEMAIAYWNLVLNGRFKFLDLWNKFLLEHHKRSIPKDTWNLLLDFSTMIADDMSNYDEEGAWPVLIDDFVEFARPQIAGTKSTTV
Protocol: (§1) Protein samples were buffer matched by desalting over a NAP-5 column (GE Healthcare) into 50 mM Hepes, 125 mM NaCl, 1 mM BME, pH 7.0 (ITC buffer). Peptides were dissolved by weight to a final concentration of 10 mM in ITC buffer and diluted further in ITC buffer as required for the experiments. […] The peptide ligands (4 mM) were constantly injected (1.5 μl). The interval time between each injection was 3 minutes and the duration of each injection was 3 seconds. […] Peptide ligands (250 μM) were constantly injected (2.5 μl). The interval time between each injection was three minutes and the duration of each injection was 5 seconds. […] The interval time between each injection was 3 minutes and the duration of each injection was 5 seconds. Obtained spectra were evaluated using Origin (V 7.0) to determine heats of binding and Kd values.

[2] = target: T1, hDcn1^P (potentiating neddylation / …); assay: ITC, two-site fit, first value
Protocol: as §1

[3] = target: T2, hDcn3^P (PONY domain of human DCUN1D3) (Homo sapiens, UniProt Q8IWE4 86-304); assay: ITC, peptide titrated into Dcn PONY domain
T2 sequence: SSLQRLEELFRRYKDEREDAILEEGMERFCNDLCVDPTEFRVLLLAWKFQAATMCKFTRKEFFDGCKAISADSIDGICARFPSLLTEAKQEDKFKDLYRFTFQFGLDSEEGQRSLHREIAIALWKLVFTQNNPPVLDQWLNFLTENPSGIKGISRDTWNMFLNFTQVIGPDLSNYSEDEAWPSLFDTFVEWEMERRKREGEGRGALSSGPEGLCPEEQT
Protocol: as §1

[4] = target: hDcn2^P (PONY domain of human DCUN1D2) (Homo sapiens, UniProt Q6PH85 62-259); assay: ITC, peptide titrated into Dcn PONY domain
hDcn2^P (PONY domain of human DCUN1D2), sequence (Q6PH85 62-259 limits assumed): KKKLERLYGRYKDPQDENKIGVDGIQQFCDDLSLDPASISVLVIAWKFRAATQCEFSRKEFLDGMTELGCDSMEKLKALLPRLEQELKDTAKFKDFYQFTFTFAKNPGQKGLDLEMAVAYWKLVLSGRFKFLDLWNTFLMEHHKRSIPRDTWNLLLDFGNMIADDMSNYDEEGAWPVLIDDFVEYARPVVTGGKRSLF
Protocol: as §1

[5] = target: T3, yDcn1^P (potentiating neddylation / PONY domain of Saccharomyces cerevisiae Dcn1) (Saccharomyces cerevisiae, UniProt Q12395 70-269); assay: ITC, peptide titrated into yDcn1^P
T3 construct: NEDD8 co-E3; Expressed in E. coli
T3 sequence: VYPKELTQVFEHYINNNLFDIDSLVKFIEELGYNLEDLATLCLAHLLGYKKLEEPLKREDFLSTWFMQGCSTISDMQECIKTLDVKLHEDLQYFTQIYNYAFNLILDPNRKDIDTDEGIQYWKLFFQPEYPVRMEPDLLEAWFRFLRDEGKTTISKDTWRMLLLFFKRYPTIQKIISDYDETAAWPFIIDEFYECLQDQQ
Protocol: (§2) To gain insights into mechanistic roles of Ubc12 N-terminal acetylation, isothermal titration calorimetry (ITC) was used to quantify interactions with peptides corresponding to the N-termini of yeast or human Ubc12.
as §1

[6] = target: T4, yE1 for yNedd8 (Ula1-Uba3) (Saccharomyces cerevisiae, UniProt Q12059 1-462, limits assumed); assay: ITC, peptide titrated into yE1
T4 construct: Heterodimeric E1 expressed in E. coli as described in earlier publications
T4 sequence 1: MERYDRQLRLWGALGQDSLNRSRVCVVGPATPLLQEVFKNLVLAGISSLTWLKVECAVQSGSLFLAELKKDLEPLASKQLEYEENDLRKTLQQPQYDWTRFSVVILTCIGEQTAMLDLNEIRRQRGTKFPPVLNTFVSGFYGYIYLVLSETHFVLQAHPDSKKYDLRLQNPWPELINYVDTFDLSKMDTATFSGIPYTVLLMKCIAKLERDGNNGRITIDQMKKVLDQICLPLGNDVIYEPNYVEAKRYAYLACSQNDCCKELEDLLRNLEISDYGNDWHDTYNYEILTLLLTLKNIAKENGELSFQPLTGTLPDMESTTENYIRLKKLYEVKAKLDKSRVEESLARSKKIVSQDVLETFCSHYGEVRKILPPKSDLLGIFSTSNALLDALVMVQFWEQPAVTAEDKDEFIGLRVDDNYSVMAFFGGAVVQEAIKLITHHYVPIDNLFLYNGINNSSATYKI
T4 sequence 2: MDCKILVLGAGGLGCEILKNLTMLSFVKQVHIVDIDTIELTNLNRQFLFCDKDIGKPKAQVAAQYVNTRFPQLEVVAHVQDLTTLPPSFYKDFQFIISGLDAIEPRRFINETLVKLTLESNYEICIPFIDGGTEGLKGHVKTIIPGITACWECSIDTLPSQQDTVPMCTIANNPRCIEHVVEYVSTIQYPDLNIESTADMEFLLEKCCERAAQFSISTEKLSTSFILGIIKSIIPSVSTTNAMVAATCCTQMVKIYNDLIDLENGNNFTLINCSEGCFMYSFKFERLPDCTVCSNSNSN
Protocol: as §2, §1

B1: hUbc12^Formyl-1-26 (peptide)
peptide: For-MIKLFSLKQQKKEEESAGGTKGSSKK-NH2
SMILES: CC[C@H](C)[C@H](NC(=O)[C@H](CCSC)NC=O)C(=O)N[C@@H](CCCCN)C(=O)N[C@@H](CC(C)C)C(=O)N[C@@H](Cc1ccccc1)C(=O)N[C@@H](CO)C(=O)N[C@@H](CC(C)C)C(=O)N[C@@H](CCCCN)C(=O)N[C@@H](CCC(N)=O)C(=O)N[C@@H](CCC(N)=O)C(=O)N[C@@H](CCCCN)C(=O)N[C@@H](CCCCN)C(=O)N[C@@H](CCC(=O)O)C(=O)N[C@@H](CCC(=O)O)C(=O)N[C@@H](CCC(=O)O)C(=O)N[C@@H](CO)C(=O)N[C@@H](C)C(=O)NCC(=O)NCC(=O)N[C@H](C(=O)N[C@@H](CCCCN)C(=O)NCC(=O)N[C@@H](CO)C(=O)N[C@@H](CO)C(=O)N[C@@H](CCCCN)C(=O)N[C@@H](CCCCN)C(N)=O)[C@@H](C)O
notes: Synthetic peptide; also called Formyl-hUbc12^1-26
[1]
  Kd: 9700 nM

## Ac-MIK(Ac)LFSLKQQKKEEESAGGTKGSSKK-NH2 (Synthetic peptide) [hUbc12^Ac1-Ac3-26]
[1]
  Kd: 4600 nM

## XIKLFSLKQQKK (N-terminal acetyl; norleucine at position 1 in place of Met; C-terminal amide, Synthetic peptide) [hUbc12^Ac1-12 (NorLeu)]
[1]
  Kd: 5600 nM

B2: hUbc12^Ac1-12 (NorLeu) 5, 9 (peptide)
peptide: Ac-[Nle]IKL[S5]SLK[S5]QKK-NH2
modifications: staple 5-9
SMILES: CCCC[C@H](NC(C)=O)C(=O)N[C@H](C(=O)N[C@@H](CCCCN)C(=O)N[C@@H](CC(C)C)C(=O)N[C@@]1(C)CCCC=CCCC[C@@](C)(C(=O)N[C@@H](CCC(N)=O)C(=O)N[C@@H](CCCCN)C(=O)N[C@@H](CCCCN)C(N)=O)NC(=O)[C@H](CCCCN)NC(=O)[C@H](CC(C)C)NC(=O)[C@H](CO)NC1=O)[C@@H](C)CC
notes: Stapled synthetic peptide
[1]
  Kd: 440 nM

B3: hUbc12^Ac1-12 (Met) 5, 9 (peptide)
peptide: Ac-MIKL[S5]SLK[S5]QKK-NH2
modifications: staple 5-9
notes: also called Acetyl-hUbc12^1-12(5:9Staple)
[1]
  Kd: 153 nM

B4: hUbc12^Ac1-12 (Met) RR 6, 10 (peptide)
peptide: Ac-MIKLF[(R)‑2‑(4-pentenyl)alanine]LKQ[(R)‑2‑(4-pentenyl)alanine]KK-NH2
modifications: staple 6-10
notes: Stapled synthetic peptide; 'RR' is not explained in the text
[2]
  Kd: 340 nM

## Ac-[SeMet]IKL[S5]SLK[S5]QKK-NH2 (staple 5-9, Stapled synthetic peptide) [hUbc12^Ac1-12 (SeMet) 5, 9]
[1]
  Kd: 182 nM

B5: hUbc12^Ac1-12 (Met) Oct:But 6, 10 (peptide)
peptide: Ac-MIKLF[S8]LKQ[αMeNva(5-ylidene)]KK-NH2
modifications: staple 6-10
notes: Stapled synthetic peptide; by the label the octenyl- and butenyl-alanine residues stand in the reverse order of the But:Oct peptide
[1]
  Kd: 129 nM

## Ac-MIKLKSLKEQKK-NH2 (bridge 5-9; also: K5-E9 staple, chemistry not given here, Stapled synthetic peptide) [hUbc12^Ac1-12 (Met) KE 5, 9]
[1]
  Kd: 1060 nM

## Ac-MIKLFKLKQEKK-NH2 (bridge 6-10; also: K6-E10 staple, chemistry not given here, Stapled synthetic peptide) [hUbc12^Ac1-12 (Met) KE 6, 10]
[1]
  Kd: 483 nM

B6: hUbe2f^Ac1-25 (peptide)
peptide: Ac-MLTLASKLKRDDGLKGSRTAATASD-NH2
notes: Synthetic peptide of the N-terminus of human Ube2f; also called Acetyl-hUbe2f^1-25
[3]
  Kd: 2000 nM

B7: yUbc12^Ac1-12 (NorLeu) (peptide)
peptide: Ac-[Nle]LKLRQLQKKKQ-NH2
SMILES: CCCC[C@H](NC(C)=O)C(=O)N[C@@H](CC(C)C)C(=O)N[C@@H](CCCCN)C(=O)N[C@@H](CC(C)C)C(=O)N[C@@H](CCCNC(=N)N)C(=O)N[C@@H](CCC(N)=O)C(=O)N[C@@H](CC(C)C)C(=O)N[C@@H](CCC(N)=O)C(=O)N[C@@H](CCCCN)C(=O)N[C@@H](CCCCN)C(=O)N[C@@H](CCCCN)C(=O)N[C@@H](CCC(N)=O)C(N)=O
[4]
  Kd: 793 nM
[1]
  Kd: 628 nM

B8: yUbc12^Ac1-12 (NorLeu) 5, 9 (peptide)
peptide: Ac-[Nle]LKL[S5]QLQ[S5]KKQ-NH2
modifications: staple 5-9
SMILES: CCCC[C@H](NC(C)=O)C(=O)N[C@@H](CC(C)C)C(=O)N[C@@H](CCCCN)C(=O)N[C@@H](CC(C)C)C(=O)N[C@@]1(C)CCCC=CCCC[C@@](C)(C(=O)N[C@@H](CCCCN)C(=O)N[C@@H](CCCCN)C(=O)N[C@@H](CCC(N)=O)C(N)=O)NC(=O)[C@H](CCC(N)=O)NC(=O)[C@H](CC(C)C)NC(=O)[C@H](CCC(N)=O)NC1=O
notes: Stapled synthetic peptide
[4]
  Kd: 515 nM
[1]
  Kd: 418 nM

B9: Acetyl-yUbc12^1-24 peptide (peptide)
peptide: Ac-MLKLRQLQKKKQKENENSSSIQPN-NH2
notes: Synthetic peptide; also called yUbc12^Ac1-24
[5]
  Kd: 444 nM
  ΔH: 4.15 kcal/mol
  ΔS: 43.6 cal/mol/deg
[6]
  Kd: 16 nM
  N (stoichiometry): 0.99
  ΔH: -11.3 kcal/mol
  ΔS: -3.8 cal/mol/deg

## Ac-LKLRQLQKKKQKENENSSSIQPN-NH2 (Synthetic peptide lacking Met1) [Acetyl-yUbc12^2-24 peptide]
[5]
  ΔH: 3.76 kcal/mol
  ΔS: 33.4 cal/mol/deg
[6]
  Kd: 1580 nM
  N (stoichiometry): 0.92
  ΔH: -9.62 kcal/mol
  ΔS: -7.21 cal/mol/deg
